According to the DeepSol protein solubility set:

Assay: soluble on expression in E. coli; label from the status in PepcDB or PDB records

| Sequence | soluble on expression in E. coli |
| --- | --- |
| MSLSENLIIFNAKVVTPLGFSARKGKEMAELRILEKATVEVVDGIITYVGPNRGEVRDGYYHHFWHYNARGKCLLPGFVDSHTHFVFGGERAEEFSWRLKGESYMSIMQRGGGIASTVQATRELSFIHLRSKAEGLLKKMTAMGITTVEGKSGYGLNRETELLQLKVMRSLNKDEGVRVDIVPTFLGAHALPDEYKERPDDYIDFLIRELLPVIQRDSLAEFCDVFCEEGVFSIEQSRRLLTAAGDYGLLPKLHADEIVPLGGAELAAELGAVSADHLLHASDAGIEAMARKGVVATLLPLTAFALKEPYARGRDMIDAGCAVALATDLNPGSCFSGSIPLTFALACIHMQLTVEEAITALTLNGAAALNRADSIGSIEVGKKGDFVVLDSDNYHILPYYVGMNCVNTTIKGGMLYPSEGHHHHHH | soluble |
| MAPLLSLCMIVKNEAHQLRRCLQSVQPWVDEIIIVDTGSTDGTIAIACEFTPHVHAVAWQGDFAAARNAALAQATGEWVFYIDADEELVVTDAHWQDQLTAPGAHAINQWSLLRREQSSDRNWSEFWNVRFGRRFPDLHFAGALHEQLCYREREAVVGELQGVYLIHHNQQSQEQFLAKIRDRNIPILETMVQQGDRRLQNLVCLGDHYAACGDSDRSQAWYEQALEEIASAVEQGILPRETTWLRHLLFWVSYRAFEAKDYETAQYYLSYGLRFFDRYPPLLYVAGLFVFELGLPRGALPYFHRCLDLFEAGSYDRTEPFDRQWMTTQPAYSLGYTYMTLQERDRAIAYFQKTLKFNPDYPPAQMYLEQLLRASANQGLEHHHHHH | not soluble |
| SKRVVFVTVGTTSFDALVKAVVSQNVKDELQKRGFTHLLIQMGRGIFFPTKCDGADGSLVVDYFTFSSSIADYIRSASLVISHAGSGSIFETLKLGKPLIVVVNEDLMDNHQCELAEALEERKHLYYTRPHSLHQTLTKMELGSLVQYTPGDGTPVARIIDRFLG | soluble |
| MAHHHHHHMSSVSAAPQLSPKVIPGCSNTHSNSGLPTILSDLGTFAYQSACYGPQQLLACSSAVTNAGEVIFVYDMNSMLLTQSLSGHKAAVTALLWRPPPASYLQTGLFLWSGDARGALMYWDVVEGVALTSIQTPCHAAVQSLTLLTDEHLLVVTQEGAGYVFNSHLVDNTPLPPGRLLLETKQSTLLGNISRPSLVACSRLNDQHCCAVVLGDRLRILTAIQLDSGATAPVAKDLIYDSCDGAPTVVDVFFSDAQEEVLYFATRNTVGCYDWKLRLMLNESLLWLPDEVEFRRIFRSCSSGAAARTAASRSQESTASSSGDAAAAQVPLMYSFGSDQRLVAWHVTRHDRFTAVLTDVRGARINAKLCVNVVQSELDSSMFAVLFEDGSIVHWQYSPLARRWKLLDCWLAPVVRPVTFCPVGAHHCCVALESGHLALMDITHSMAVRRLTWSTLAERRLCCCAGTSGATLSGSCRTASNSTATTTKSR | not soluble |
| MPQINTVPGPHLRRQVWLRTKSGQRLAYAVSWWDASHVDEYLQNRSLPIWDSLSRLHTELYRDIQAIYCGHNRTLAKAFGQEGPFWGRHYLFWHDRKPLTLIYEIFSPYLSRYLGELPRPKFELEHHHHHH | not soluble |
| MKRVDSVISLIYSLSKSEKKHFSLQVIKDKEEKDYLVIYDIIIKSKQPNGNTVKEEFYRRKPNGSFEVSIQYLYEKLTDTLLTLRKKKDIYYDLLNNLCKARMLYERSLFEECFEILSNTIEQAQFYENNEILTIALKLELEYLLRLNFPNMTEQELFHKHFIQNEALKKIRKITEQSSLHNLLKYRLSHIGSIRTVKQKQDMNDLMVNELYIAASSDSEGNFELTRNHKLFQANYLMGAGDYRAALNSYKELDSLFEQNQQFWSNPPIYYLSVLEGVLGSLRSVSNYDEIPYFLDKLRKLISDSTSLEFKVNATCLLFQYELFPYLDKGDFSKCTQLMADYQEILYDKEAWLGPIRKSELLLYTTLVHIGNQEYKTAKKYISNAIIDHNIKYLPLMRTIRLVRLIVFYEVQEHELIQYESRSITRSLSSPKEQTFKTERIILWFLNKRNIPILKKDREAFWEKLSPEIHELYNNKYESQLLRLFDFTAWMESKIRKEKLSEVLRARASAKEC | not soluble |
| MGSDKIHHHHHHMSVTQIVTSEDILLKLCHSVSHVLSHTSGSRVTHAAMVQNISSTRLKPDLGCFSIFDGGFSGLVVINFSAASAVEIYRRYMLNMGMPESDLAFSHNSDEVGNVMGELMNQILGDFIGKVSKELQTSISQSQPKMLTINKEITISIDANLDEPVIRRVSFMTESNHIFYLEFAMDKTEFVKTREFELDEEFDPDFLIEQHGNTRSPWSQMAGKGIVADDADDLLDELGI | not soluble |
| MGSGKERDTFVYLAKLSEQAERYEEMVESMKSVAKLNVDLTVEERNLLSVGYKNVIGSRRASWRIFSSIEQKEAVKGNDVNVKRIKEYMEKVELELSNICIDIMSVLDEHLIPSASEGESTVFFNKMKGDYYRYLAEFKSGNERKEAADQSLKAYEIATTAAEAKLPPTHPIRLGLALNFSVFYYEIMNAPERACHLAKQAFDEAISELDTLNEESYKDSTLIMQLLRDNLTLWTSDISEEGGDDAHKTNGSAKPGAGGDDAE | soluble |
| GPGSMSNAVSGVIDARWMRFLRECKQRELVAEIEVLRRTFEATLDRKKGFSTTLLEELSVAEEQCRHAFRSHMDVVSSLLQLHAARTKDLEADLDANVAEMQQDFEYERAELELKHMIEMDDLRLILDNMAAEAEMLEKKLQEETSEGHETAAEKMDEAMREMEADLNKVEDGLRGELDSRYKKFMSAAQANMKEYTAKCKEDQETTERIAAQLRKIEKLQSSVSSWRTNIARNAKEWEDRNAAIQAERDATLSHLKKLKDKMQRWRELQSKALVELVKEANATEEALQATSKRAVRLLRLVELCKPMETEREQVLLHEANISSAAVEAETKRRVAAESSGNAQDDVLRGGDAAPAANEQWLSLDRFWVKHNKVVLDNAALTQERFLLEEENRVLQEVLKQYLDDVSISDQVMRQSNTLLLTQGANYNVVQAANASDNSVVRGYNVIEGNKFVNDQSRQAISH | not soluble |
| MAHHHHHHMLSLCKSLSSDAPTRTKTRVVLSMFNASHVDELLASTTRTLQRSQVLLDERRSVIQSQQGLPPMFCVASSSAASTSVGSSAAAPYASASSSFADTVRSLQSLSELRSYVEATAEMMKRVREEGMEPSPAMQQRRARGQDFALLQSMTRGLRGAMTAAWQMSETTAALWAFSTEACGGAEEAAAAEDAASAAAGSTLCAVPGARSGGTRSSGAQLTSTLIFSAFCVDLAIAAPRAASAVAAELESVFEPSSDNGRPSSLVSEWMRDGNVKLSALLRDVAALLPPPVKTRLVARLADVLFRPSPALPRSPKESSGHPLGCELLSGGQLLLPSLDYYLLEQYPSSLASRWFLQPLQATAEHLRADYYASADQFHVQCRWLLRLVLTLLYACQSAALPTSTASRPPLERRLRTAQRLYDAWLIPLEKTFGNGTARHGMSVSFNRALVQPHGHMVERLLFTSSPASGVSGVSKVVQQSREWSGILYSAQYRLLLILEKLAHSEVAQVNGTSSTSAKQRTYETMLRQNGGKVSVSLLQTLAEDKQLLLDETPSRSPDGHRLYKLHDGLLDDSGKAVFVYLDDGALFTKVGRARAFQRVKSVEDIFKPLQ | not soluble |
| KAHGNFPVYRNTDVTFLPTGEAFFEKMKEELLKAKKYIFLEFFIIDEGIMWGEILSILEQKVEEGVEVRILYDGMIEITKLSFDYTKRLEKIGIKAKAFSPISPFISTYYNYRDHRKIVVIDGVVGMTGGVNLADEYINHIELFGHWKDSGIMLKGKAVDSFLLLFLQMWSITEEKMLVAPYLGVHDDLVENEGYVIPYGDSPLDTDKVGENV | not soluble |
| MTQLNFEENLLTKVAWYYYKDQLTQQEIASLLHISRNKVVRLLDKARSEGIVTFHVKGTGLHCLSIERDLMKKFHLKDAFIIPTPVNNYHASLGKAAAQYLETHLQQGDLLGIGWGETISKMLENIHFESSINLSIVTLTGGVNHYLPRKQNYLHYMQGELHIIPTPFLASTTEMAQSILSEPSVKDMLQVASLAHTAVVGIGGLSQDATIVKEEKLTLREMTYIRSQNGAGDILGQFYNTNGDLLELSHHNRLIGTPLSILRNMKHVVGVAGGTEKIDAICGALKGKFIHSLITDEETALSLLRKDGDC | not soluble |
